Measured values as given in PMC4888466.

Key:
purified protein [1] = substrate: O=P(O)(O)O[C@H]1O[C@H](CO)[C@@H](O)[C@H](O)[C@H]1O; assay: purified protein; assay type: biochemical, Caenorhabditis elegans; settings: 1 mM UTP, 5 mM MgCl2, pH 7.5, 25°C
purified protein [2] = substrate: O=c1ccn([C@@H]2O[C@H](COP(=O)(O)OP(=O)(O)OP(=O)(O)O)[C@@H](O)[C@H]2O)c(=O)[nH]1; assay: purified protein; assay type: biochemical, Caenorhabditis elegans; settings: 1 mM Glc-1-P, 5 mM MgCl2, pH 7.5, 25°C

B1: UGP-1 (Caenorhabditis elegans) (protein)
chain: MSNDQLKSKLREFFDRQPDQSEKAHQDSKIFEVLYSQFLENQHCIDWNSWKFLEEKHQVTLKDLEPFDKSRFNILNKLAVIKLNGGLGTTMGCSKAKSLVEVREGYTFMDLAVLEHQKMCEAHNVDTPLYLMNSFYTDEDTKKYLAEKGYSNVKTFVQSKCPRLDAETKLPIEDENEDWGDDAWCPPGHGNIFQSLQNSGVLDQLLADGREIIFVSNIDNTGANTDLQIVQLMLDKNVDYIMECTPKTQVDVKGGTLIDIGGRMMHLEMPQVPAENLPDFCSTKVFKIFNTNNIYVNLKAVKKLLPDIKSEIIVNKKTIRSREVLQLEFSIGGCIKNFDNALCVHVERKRFRPVKNLGDLLSLRSTLCDLDHSTFKVHHNHELGAPPVISLDPSIYNSVEVVDLKFPHPLVMDNCSEFAVVGDVTFGKNVKLSGKVTVNGKTESPGVVPDGTVLKDQEYIAE
Purified protein [1]
  Km: 77.65 ± 7.73 µM
  kcat: 23 ± 0.65 s⁻¹
  kcat/Km: 300000 ± 31000 M⁻¹ s⁻¹
Purified protein [2]
  Km: 13.85 ± 2.95 µM
  kcat: 20 ± 0.7 s⁻¹
  kcat/Km: 1.45e+06 ± 310000 M⁻¹ s⁻¹
